The values below come from PMC8894350, “Mechanism of cooperative N-glycan processing by the multi-modular endoglycosidase EndoE” (Nature Communications, 2022).

The target in series [1] is T1, EndoE-GH18L (Enterococcus faecalis, UniProt Q6U890).
T1 construct: gene ndoE; GH18 domain plus linker region (3HB-1, 3HB-2), residues 56-486; GST tag cut by TEV (GSG linker); E. coli BL21(DE3)
Put plainly: X-ray crystal structure of the complex, […] Å. As to conditions: co-crystallised with 2.5 mM Man5GlcNAc; pH 6.5 Bis-Tris propane; GH18 active-site groove. It is filed as binding.

Series [2] relates to CC(=O)N[C@H]1[C@H](Oc2ccc([N+](=O)[O-])cc2)O[C@H](CO)[C@@H](O)[C@@H]1O. Description: purified protein. As to conditions: PCTP buffer pH 8, 5 nM enzyme, 0.09-12 mM substrate, GH20 active site within full-length EndoE.
The test system is the same in series [3]. Put plainly: purified protein. It is filed as biochemical, Enterococcus faecalis. As to conditions: PCTP buffer pH 8, 5 nM enzyme, 0.09-12 mM substrate, isolated GH20 domain.

T1 sequence (Q6U890 entry or part of it): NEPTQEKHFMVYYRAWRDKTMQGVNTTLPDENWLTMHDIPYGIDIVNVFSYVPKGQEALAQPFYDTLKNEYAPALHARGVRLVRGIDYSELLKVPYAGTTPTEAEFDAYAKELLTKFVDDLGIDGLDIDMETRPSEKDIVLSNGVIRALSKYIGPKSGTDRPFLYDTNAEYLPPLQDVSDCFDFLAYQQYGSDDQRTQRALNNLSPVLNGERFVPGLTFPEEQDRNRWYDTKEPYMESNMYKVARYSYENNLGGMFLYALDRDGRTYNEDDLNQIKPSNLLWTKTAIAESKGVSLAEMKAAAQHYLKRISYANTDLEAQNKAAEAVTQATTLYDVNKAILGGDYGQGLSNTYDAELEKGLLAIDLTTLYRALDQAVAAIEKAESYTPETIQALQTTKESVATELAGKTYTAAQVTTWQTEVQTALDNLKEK

Take `CC(=O)N[C@H]1C(O)O[C@H](CO)[C@@H](O[C@@H]2O[C@H](CO[C@H]3O[C@H](CO[C@H]4O[C@H](CO)[C@@H](O)[C@H](O)[C@@H]4O)[C@@H](O)[C@H](O[C@H]4O[C@H](CO)[C@@H](O)[C@H](O)[C@@H]4O)[C@@H]3O)[C@@H](O)[C@H](O[C@H]3O[C@H](CO)[C@@H](O)[C@H](O)[C@@H]3O)[C@@H]2O)[C@@H]1O` (some centres unmarked) [Man5, Man5GlcNAc]: the “X-ray crystal structure of the complex, 2.6 Å” value in series [1] was “crystal structure of EndoE-GH18L in complex with the Man5GlcNAc (Man5) product”. What is called Km is the substrate concentration at which the rate is half of its maximum. A word on the kcat: it is the number of substrate molecules converted per active site and unit of time at saturation. Turning to EndoE (Enterococcus faecalis), in series [2], the Michaelis constant (Km) was 450 µM and the turnover number (kcat) was 41 s⁻¹. As for EndoE-GH20 (Enterococcus faecalis), in series [3], the Km was 970 µM and the kcat was 86 s⁻¹.
